Experiment [1] deals with CD22 (human) (UniProt P20273). The experiment in a line: flow cytometry, normal BM B cells at day 180 post-RAIT (FIG. 1B), epratuzumab gone from the surface. A general note: In flow cytometry, cells or beads pass a laser one at a time.
The target of experiment [2] is CD22 (human) (UniProt P20273). The experiment is described as follows: flow cytometry on peripheral blood blasts at inclusion.
The target of experiment [3] is CD22 (human) (UniProt P20273). The experiment in a line: flow cytometry on bone marrow blasts at inclusion.
Experiment [4] concerns the target CD22 (human) (UniProt P20273). The experiment in a line: flow cytometry on BM blasts of a patient who had received epratuzumab (epratuzumab on the cells).
In experiment [5] the target is CD22 (human) (UniProt P20273). The experiment in a line: flow cytometry on residual blasts of one non-responder after RAIT.
For experiment [6], the target named is CD22 (human) (UniProt P20273). The experiment is described as follows: flow cytometry on blasts after elimination of epratuzumab from the surface.
The target in experiment [7] is CD22 (human) (UniProt P20273). The experiment is described as follows: flow cytometry on residual blasts of three non-responders after RAIT (epratuzumab on the cells).
In experiment [8] the target is CD22 (human) (UniProt P20273). The experiment is described as follows: flow cytometry on residual blasts of four non-responders after RAIT.
Experiment [9] concerns the target CD22 (human) (UniProt P20273). The experiment in a line: flow cytometry, BM blasts at day 15 post-RAIT (FIG. 1A).
Experiment [10] has as its target CD22 (human) (UniProt P20273). The experiment in a line: flow cytometry, normal BM B cells at day 90 post-RAIT (FIG. 1B).

In experiment [1], “SHCL-1 (anti-CD22 antibody clone, PE or PerCp-Cy5.5 conjugated, BD Biosciences)” showed a % positive (normal BM B cells) of 100%. The median % of CD22-SHCL-1 expression (peripheral blasts) in experiment [2] amounted to 100%. In addition, the median % of CD22-SHCL-1 expression (bone marrow blasts) in experiment [3] was determined as 100%. Besides, in experiment [4], the % of SHCL-1+ blasts turned out to be 100%. Besides, the values for the % positivity of residual blasts in experiment [5], in experiment [7] and in [8] were 84%, 100% and 100%, respectively. Further, in experiment [6], the % labeling of blasts was 100%. Further, the % CD22 SHCL-1 blast expression in experiment [9] worked out at 100%. Further, in experiment [10], the % CD22 SHCL-1 expression (normal BM B cells) was 100%.

Values taken from patent US20160296648A1.
